Target: T1, 人BCMA-His抗原 (ACRO, Cat#BCA-H522y) (human, UniProt Q02223 1-54)
T1 construct: Bought reagent; Coated on the ELISA plate at 2 ug/ml; also called 人BCMA蛋白; 人BCMA抗原; not shown: His tag
T1 sequence (looked up): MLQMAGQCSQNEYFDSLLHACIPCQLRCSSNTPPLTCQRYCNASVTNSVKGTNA
Experiment: indirect ELISA, human BCMA-His coated at 2 ug/ml, detection with HRP goat anti-human Fc gamma

- binding result: binds
B1: BCMA-VHH-1F7纳米抗体 (抗人BCMA纳米抗体, 含有Fc tag) (Fc fusion)
chain: EVQLVESGGGLVQAGGSLRLSCAASGGTFNNDNVGWFRQAPGKEREFVAVISWRGDGTDYADSVKGRFTISRDYAKKMVYLQMNSLQPKDTAVYYCAVGDGSRWHGAYAYWGQGTRVTVSS
notes: Expressed in Expi293F cells with an Fc tag and purified on Protein A or G; detected with anti-human Fc gamma, about 35 kDa on SDS-PAGE; also called 抗BCMA纳米抗体; not shown: Fc tag
